Experimental data as given in patent publication US20190367627A1 (AGENUS, published 2019).

B1: pab1949 (antibody, human IgG1, kappa, V domains shown)
VH: EVQLVESGGGLVQPGGSLKLSCAASGFTFSGSAMHWVRQASGKGLEWVGRIRSKANSYATAYAASVKGRFTISRDDSKNTAYLQMNSLKTEDTAVYYCTSGIYDSSGYDYWGQGTLVTVSS
VL: not shown
notes: also called pab1949 (IgG1)
B2: pab1949 N56Y (antibody, IgG1, V domains shown)
VH: EVQLVESGGGLVQPGGSLKLSCAASGFTFSGSAMHWVRQASGKGLEWVGRIRSKAYSYATAYAASVKGRFTISRDDSKNTAYLQMNSLKTEDTAVYYCTSGIYDSSGYDYWGQGTLVTVSS
VL: not shown
B3: pab1949 A96G/L97S (antibody, IgG1, V domains shown)
VH: EVQLVESGGGLVQPGGSLKLSCAASGFTFSGSAMHWVRQASGKGLEWVGRIRSKANSYATAYAASVKGRFTISRDDSKNTAYLQMNSLKTEDTAVYYCTSGIYDSSGYDYWGQGTLVTVSS
VL: not shown
notes: Only variable domains are tied to this antibody
B4: pab1949 D104A (antibody, IgG1, V domains shown)
VH: EVQLVESGGGLVQPGGSLKLSCAASGFTFSGSAMHWVRQASGKGLEWVGRIRSKANSYATAYAASVKGRFTISRDDSKNTAYLQMNSLKTEDTAVYYCTSGIYASSGYDYWGQGTLVTVSS
VL: not shown
B5: pab1949 D109A (antibody, IgG1, V domains shown)
VH: EVQLVESGGGLVQPGGSLKLSCAASGFTFSGSAMHWVRQASGKGLEWVGRIRSKANSYATAYAASVKGRFTISRDDSKNTAYLQMNSLKTEDTAVYYCTSGIYDSSGYAYWGQGTLVTVSS
VL: not shown
B6: pab1949 Q98K (antibody, V domains shown)
VH: EVQLVESGGGLVQPGGSLKLSCAASGFTFSGSAMHWVRQASGKGLEWVGRIRSKANSYATAYAASVKGRFTISRDDSKNTAYLQMNSLKTEDTAVYYCTSGIYDSSGYDYWGQGTLVTVSS
VL: not shown
notes: as for B3
B7: pab1949 T99W (antibody, V domains shown)
VH: EVQLVESGGGLVQPGGSLKLSCAASGFTFSGSAMHWVRQASGKGLEWVGRIRSKANSYATAYAASVKGRFTISRDDSKNTAYLQMNSLKTEDTAVYYCTSGIYDSSGYDYWGQGTLVTVSS
VL: not shown
notes: as for B3
B8: pab1949 Y103A (antibody, IgG1, V domains shown)
VH: EVQLVESGGGLVQPGGSLKLSCAASGFTFSGSAMHWVRQASGKGLEWVGRIRSKANSYATAYAASVKGRFTISRDDSKNTAYLQMNSLKTEDTAVYYCTSGIADSSGYDYWGQGTLVTVSS
VL: not shown
B9: pab1949 Y108A (antibody, IgG1, V domains shown)
VH: EVQLVESGGGLVQPGGSLKLSCAASGFTFSGSAMHWVRQASGKGLEWVGRIRSKANSYATAYAASVKGRFTISRDDSKNTAYLQMNSLKTEDTAVYYCTSGIYDSSGADYWGQGTLVTVSS
VL: not shown
B10: pab2049 (antibody, human IgG1, V domains shown)
VH: EVQLVESGGGLVQPGGSLKLSCAASGFTFSGSAMHWVRQASGKGLEWVGRIRSKANSYATAYAASVKGRFTISRDDSKNTAYLQMNSLKTEDTAVYYCTSGIYDSSGYDYWGQGTLVTVSS
VL: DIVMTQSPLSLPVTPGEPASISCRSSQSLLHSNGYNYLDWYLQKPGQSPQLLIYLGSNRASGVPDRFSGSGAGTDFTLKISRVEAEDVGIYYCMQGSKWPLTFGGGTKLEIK
notes: its constant region is not tied to this antibody; also called pab2049 (IgG1)

target: T1, human OX40 (human, UniProt P43489 29-277); assay: flow cytometry on Jurkat cells expressing human OX40
T1 construct: Recombinantly expressed on transduced Jurkat cells; also called OX40 receptor; huOX40
T1 sequence: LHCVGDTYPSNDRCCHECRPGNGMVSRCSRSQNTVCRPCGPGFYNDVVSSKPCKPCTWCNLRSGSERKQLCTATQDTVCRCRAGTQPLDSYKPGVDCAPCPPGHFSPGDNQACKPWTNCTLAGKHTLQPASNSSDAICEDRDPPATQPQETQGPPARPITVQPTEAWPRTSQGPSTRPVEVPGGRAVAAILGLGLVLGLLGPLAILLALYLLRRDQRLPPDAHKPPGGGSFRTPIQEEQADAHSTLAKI
From the text: FIGS. 1A, 1B, 1C, 1D, 1E, IF, 1G, 1H, 1I, and 1J are a set of flow cytometry plots showing the binding of anti-OX40 antibodies or an isotype control antibody to Jurkat cells expressing human OX40. The anti-OX40 antibodies tested include pab1949, pab2049, heavy chain variants of pab1949 (pab1949 N56Y, pab1949 Y103A, pab1949 D104A, pab1949 Y108A, and pab1949 D109A), and light chain variants of pab1949 (pab1949 A96G/L97S, pab1949 Q98K, and pab1949 T99W). All the anti-OX40 antibodies tested are IgG₁ antibodies. MFI values are plotted over a range of antibody concentrations.
The binding characteristics of the anti-OX40 antibodies to cells expressing human OX40 were analyzed by flow cytometry. Briefly, Jurkat cells were transduced to recombinantly express human OX40. Stable clones were generated via single-cell sorting (FACS ARIA Fusion). OX40 expression was verified by flow cytometry using positive control antibodies. For binding analysis, OX40-expressing Jurkat cells were incubated with anti-OX40 antibodies (12-point dose titration, 10 μg/ml to 0.00005 μg/ml) for 30 minutes at 4° C. The samples were washed twice and then incubated with FITC-conjugated mouse anti-human kappa detection antibody (Life Technologies, Catalog number: HP6062) for 30 minutes at 4° C. The samples were then washed twice and analyzed using the LSRFortessa flow cytometer (BD Biosciences). The flow cytometry plots were analyzed using a combination of FACS DIVA and WEHI Weasel software.

Binding result, binds:
B1
B2
B3
B4
B5
B6
B7
B8
B9
B10
